Experimental data reported in patent US10117916B2, “Peptides and combination of peptides for use in immunotherapy against CLL and other cancers” (immatics biotechnologies GmbH, priority 2015, dated 2018).

Legend:
HLA-A*02:01 = HLA-A*02:01 (Homo sapiens, UniProt P04439, D140Y/D185E/D98H/E176V/E277Q/G131W/G231S/I119V/I121R/I166T/I218V/L300P/L318F/N151K/N90K/P208A/P217A/Q86G/Q94H/R138H/R169H/T345S); test: MHC binding assay: UV-ligand exchange with β2m ELISA (peptide exchange yield); conditions: MHC class I binding score; binding to HLA-A*02:01 ranged by peptide exchange yield (UV-ligand exchange, β2m ELISA)
In short: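 UV-cleavable peptide in HLA monomers exchanged for test peptide by UV irradiation; exchange yield measured by streptavidin-capture ELISA with HRP anti-β2m (TMB, 450 nm) on 100-fold diluted complexes. Quantified against refolded HLA-A*02:01/MLA-001 standards (15-500 ng/ml).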

CD8+ T cells = test: In vitro immunogenicity: T-cell priming with aAPCs loaded with peptide/MHC and anti-CD28, pMHC multimer readout; assay type: cell-based, human; conditions: HLA-A*02 restricted peptides; CD8+ T cells of healthy donors; three stimulation cycles
Description: In an aspect, the peptides are pre-screened for immunogenicity before being included in the warehouse. By way of example, and not limitation, the immunogenicity of the peptides included in the warehouse is determined by a method comprising in vitro T-cell priming through repeated stimulations of CD8+ T cells from healthy donors with artificial antigen presenting cells loaded with peptide/MHC complexes and anti-CD28 antibody.
CD8+ T cells were primed using artificial APCs coated with anti-CD28 mAb and HLA-A*02 in complex with SeqID No 1 peptide (FIG. 3C, left panel), SeqID No 5 peptide (FIG. 3D left panel), SeqID No 32 peptide (FIG. 3E, left panel) and SeqID No 220 peptide (FIG. 3F, left panel), respectively. After three cycles of stimulation, the detection of peptide-reactive cells was performed by 2D multimer staining with A*02/SeqID No 1 (FIG. 3C), A*02/SeqID No 5 (FIG. 3D), A*02/SeqID No 32 (FIG. 3E) or A*02/SeqID No 220 (FIG. 3F). Right panels (FIGS. 3C, 3D, 3E and 3F) show control staining of cells stimulated with irrelevant A*02/peptide complexes. Viable singlet cells were gated for CD8+ lymphocytes. Boolean gates helped excluding false-positive events detected with multimers specific for different peptides.
In order to obtain information regarding the immunogenicity of the TUMAPs of the present invention, the inventors performed investigations using an in vitro T-cell priming assay based on repeated stimulations of CD8+ T cells with artificial antigen presenting cells (aAPCs) loaded with peptide/MHC complexes and anti-CD28 antibody.
In order to perform in vitro stimulations by artificial antigen presenting cells loaded with peptide-MHC complex (pMHC) and anti-CD28 antibody, the inventors first isolated CD8+ T cells from fresh HLA-A*02 leukapheresis products via positive selection using CD8 microbeads (Miltenyi Biotec, Bergisch-Gladbach, Germany) of healthy donors obtained from the University clinics Mannheim, Germany, after informed consent.
PBMCs and isolated CD8+ lymphocytes were incubated in T-cell medium (TCM) until use consisting of RPMI-Glutamax (Invitrogen, Karlsruhe, Germany) supplemented with 10% heat inactivated human AB serum (PAN-Biotech, Aidenbach, Germany), 100 U/ml Penicillin/100 μg/ml Streptomycin (Cambrex, Cologne, Germany), 1 mM sodium pyruvate (CC Pro, Oberdorla, Germany), 20 μg/ml Gentamycin (Cambrex). 2.5 ng/ml IL-7 (PromoCell, Heidelberg, Germany) and 10 U/ml IL-2 (Novartis Pharma, Nirnberg, Germany) were also added to the TCM at this step.
Generation of pMHC/anti-CD28 coated beads, T-cell stimulations and readout was performed in a highly defined in vitro system using four different pMHC molecules per stimulation condition and 8 different pMHC molecules per readout condition.
The purified co-stimulatory mouse IgG2a anti human CD28 Ab 9.3 (Jung et al., 1987) was chemically biotinylated using Sulfo-N-hydroxysuccinimidobiotin as recommended by the manufacturer (Perbio, Bonn, Germany). Beads used were 5.6 μm diameter streptavidin coated polystyrene particles (Bangs Laboratories, Illinois, USA).
800.000 beads/200 μl were coated in 96-well plates in the presence of 4×12.5 ng different biotin-pMHC, washed and 600 ng biotin anti-CD28 were added subsequently in a volume of 200 μl. Stimulations were initiated in 96-well plates by co-incubating 1×10^6 CD8+ T cells with 2×10^5 washed coated beads in 200 μl TCM supplemented with 5 ng/ml IL-12 (PromoCell) for 3 days at 37° C. Half of the medium was then exchanged by fresh TCM supplemented with 80 U/ml IL-2 and incubating was continued for 4 days at 37° C. This stimulation cycle was performed for a total of three times. For the pMHC multimer readout using 8 different pMHC molecules per condition, a two-dimensional combinatorial coding approach was used as previously described (Andersen et al., 2012) with minor modifications encompassing coupling to 5 different fluorochromes.

| Substance | Peptide Exchange (HLA-A*02:01) | Wells positive [%] (CD8+ T cells) |
| --- | --- | --- |
| 101 (ILVVIEPLL; listed as Homo sapiens) [compound 101] | ″++++″ (≥75% = ++++) | ″+″ (<20% = +) |
| 200 (YMFEEVPIVI; listed as Homo sapiens) [compound 200] | ″++++″ (≥75% = ++++) | ″+″ (<20% = +) |
| 17 (ALTKTNLQL; listed as Homo sapiens) [compound 17] | ″+++″ (≥50 = +++) | ″+″ (<20% = +) |
| 57 (GLSEISLRL; listed as Homo sapiens) [compound 57] | ″++++″ (≥75% = ++++) | ″+″ (<20% = +) |
| 282 (LLRDGIELV; listed as Homo sapiens) [compound 282] | ″+++″ (≥50 = +++) | ″++″ (20%-49% = ++) |
